Target: His-tagged exomer complex (S. cerevisiae) (UniProt Q12114)
Experiment: pull-down; His-exomer complex immobilized on Ni-NTA beads, incubated with 150 ug/ml purified GST-Chs3 fragments at RT for 30 min; washes with B88G + 1% Tween 20 and B88G; SDS-PAGE and Coomassie staining; bound fragment quantified, normalized to Chs5p in the lane and to the wt pull-down; two independent experiments

B1: GST-Chs3 (1–170) D19AE21A (domain or fragment)
chain: MTGLNGDDPDDYYLNLNQAEASLLRSRHSVGSGAPHRQGSLVRPERSRLNNPDNPHFYYAQKTQEQMNHLDVLPSSTGVNPNATRRSGSLRSKGSVRSKFSGRETDSYLLQDMNTTDKKASVKISDEGVAEDEFDKDGDVDNFEESSTQPINKSIKPLRKETNDTLSFWQ
- level of binding, % of wt: 62 to 63 % of wt

— publication PMC3463608
